Assay in all cases: ITC
In test [1] the target is T1, Atg8 (1-116) K26P, P38182.
T1 chain: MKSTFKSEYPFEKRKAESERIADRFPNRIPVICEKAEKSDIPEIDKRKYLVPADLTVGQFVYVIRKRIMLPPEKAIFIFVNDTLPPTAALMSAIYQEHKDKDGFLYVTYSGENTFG
Conditions: chain shown with the change; Atg8 (1.8 mM).

In test [2] the target is human GABARAP (1-116), O95166. The following applies: chain shown with the change.
Test [3] addresses T2, FAM134B^444–470 peptide, Q9H6L5.
T2 chain: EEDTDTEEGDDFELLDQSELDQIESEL
The following applies: chain shown with the change.

Test [4] concerns the target T3, SEC62^355–376 peptide, Q99442.
T3 chain: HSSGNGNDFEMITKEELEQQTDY
Conditions: chain shown with the change.

Data on four molecules can be found in article PMC7335187, “Super-assembly of ER-phagy receptor Atg40 induces local ER remodeling at contacts with forming autophagosomal membranes” (Nature Communications, 2020).

B1: Atg40^237–252 peptide, Q99325 D243A; D247A (peptide)
chain: EFPNDYAFMEAILDET
As a reminder, the Kd is the constant that tells how readily two partners part at equilibrium. In the case of B1, the Kd in test [1] was 83.3 µM.

B2: FAM134B^444–470 peptide, Q9H6L5 F455A (peptide)
chain: GPEEDTDTEEGDDAELLDQSELDQIESELY
Take B2: the Kd in test [2] was 3.55 µM.

B3: SEC62^355–376 peptide, Q99442 E364A; E370A (peptide)
chain: GPHSSGNGNDFAMITKEALEQQTDY
B3 returned a Kd in test [2] of 35.1 µM.

B4: human GABARAP (1-116), O95166 R67A (protein)
chain: MKFVYKEEHPFEKRRSEGEKIRKKYPDRVPVIVEKAPKARIGDLDKKKYLVPSDLTVGQFYFLIRKAIHLRAEDALFFFVNNVIPPTSATMGQLYQEHHEEDFFLYIAYSDESVYG
Take B4: the Kd in test [3] worked out at 1.88 µM; in test [4] it was 9.43 µM.
